According to US20260209365A1, “ANTI-COMMON GAMMA CHAIN PROTEINS AND COMPOSITIONS OF MATTER” (SINOMAB BIOSCIENCE LIMITED, priority 2023, published 2026):
Numbering of substitutions follows the chain as printed.

B1: SM-05J: anti-γc antibody; CDR SEQ ID NO: 148, 150, 152, 156, 158, 160 (antibody, V domains shown)
VH: EVQLQQSGPELVKPGASVKISCKTSGYTFTEYTMHWVKQSHGKSLEWIGGIDPYNGGITYNQRFKGKATLTVDKSSSTAYMELRSLTSEDSAVYYCARRRLYYGYALDYWGQGTSVTVSS
VL: DVVMTQTPLSLPVSLGDQASISCRSSQSIVHSNGNTYLEWYLQKPGQSPKLLIYKVSNRFSGVPDRFSGSGSGTDFTLKISRVEAEDLGVYYCFQGSHVPFTFGSGTKLEIK
modifications: left off: another chain or arm of the molecule; small tags and cut ends
B2: SM-05C: anti-γc antibody; CDR SEQ ID NO: 36, 38, 40, 44, 46, 48 (antibody, V domains shown)
VH: B1 VH with E1Q, S21F, K43E, Y54N, N55T, I58A, R63K, V72A, L101R, L107M
VL: B1 VL with I29L, E39H, V90I, G96D
modifications: left off: another chain or arm of the molecule; small tags and cut ends
B3: SM-05B: anti-γc antibody; CDR SEQ ID NO: 20, 22, 24, 28, 30, 32 (antibody, V domains shown)
VH: B1 VH with E1Q, S21F, K43E, Y54N, N55T, I58A, R63K, V72A, L101R
VL: B1 VL with V3L, Y92F, F94S, G96S, S97T, F101W, S105G
modifications: left off: another chain or arm of the molecule; small tags and cut ends
B4: SM-05L: anti-γc antibody; CDR SEQ ID NO: 180, 182, 184, 188, 190, 192 (antibody, V domains shown)
VH: B1 VH with Y54N, N55S, I58A, R63K, L83V, L107M
VL: B1 VL with V3L, D17G, S28N, Y92F, F94S, G96S, S97T, T102A
modifications: left off: another chain or arm of the molecule; small tags and cut ends
B5: SM-05D: anti-γc antibody; CDR SEQ ID NO: 52, 54, 56, 60, 62, 64 (antibody, V domains shown)
VH: B1 VH with E1Q, I58V, L83F, Y105N
VL: B1 VL with V2I, S32R
modifications: left off: another chain or arm of the molecule; small tags and cut ends

How the values were obtained:
Type in all cases: cell-based, human
Settings in all cases: ScFv 10 μg/ml
[1] = test system: IL-21 induced STAT3 phosphorylation; test: Inhibition of IL-21 induced STAT phosphorylation in Ramos B cell line, flow cytometry
Text: (§1) Cells were harvested and stained with FITC conjugated anti-pSTAT6, PE conjugated anti-pSTAT3 or APC con jugated anti-pSTAT5 antibodies for flow cytometry analyses. In some embodiments, the purified ScFv could block the IL-4 induced STAT6 phosphorylation in cell culture (e.g., Ramos). In some embodiments, the purified ScFv could block the IL-7 induced STAT5 phosphorylation in cell culture (e.g., HPB-ALL). In some embodiments, the purified ScFv could block the IL-9 induced STAT3 phosphorylation in cell culture (e.g., Jurkat). In some embodiments, the purified ScFv could block the IL-15 induced STAT5 phosphorylation in cell culture (e.g., KHYG-1). In some embodiments, the purified ScFv could block the IL-21 induced STAT3 phosphorylation in cell culture (e.g., Ramos).
(§2) Flow cytometry was employed to measure the percentage of p-STAT expressing cells after cytokine induction and anti-γc ScFv treatment. KHYG-1 (Creative Bioarray, Shirley, NY 11967, USA) was starved in IL-2 free RPMI1640 (ATCC modification, ThermoFisher Scientific, Waltham, MA, USA) with 10% FBS (ThermoFisher Scientific) for 2 days. Ramos, HPB-ALL and Jurkat cell lines were used directly without starvation. Cells were replenished with fresh RPMI1640 medium and pretreated with anti-γc ScFv (10 μg/mL) for an hour. After treatment with TL-4 (10 ng/ml, Sino Biological), IL-7 (50 ng/ml, Sino Biological), IL-9 (50 ng/ml, Sino Biological), IL-15 (10 ng/ml, Sino Biological) or IL-21 (10 ng/ml, Sino Biological) for 15 min, cells were fixed in 4% paraformaldehyde (PFA, Sigma, St. Louis, Missouri, USA) for 10 min, permeabilized in 0.1% Triton X-100 (Sigma) for 10 min and then stained with FITC conjugated anti-pSTAT6, PE conjugated anti-pSTAT3 or APC con jugated anti-pSTAT5 (all diluted in 1:100, Biolegend, San Diego, California, USA) for 30 min at 37° C. Percentage of p-STAT expressing cells was measured by BD FACSLyric™ Clinical Flow Cytometry System (BD Biosciences, New Jersey, USA). Data were analyzed by Flowjo (version 10, BD).
(§3) Different cell lines were used for testing. KHYG-1 refers to the NK cell line harvested from the peripheral blood of a person with aggressive NK cell leukemia. This cell line could respond to IL-2 and IL-15 stimulation in-vitro [Yamasaki et al., Leuk Res., […]; 28 (10): 1023-31]. Ramos is a human Burkitts Lymphoma cell line (CRL-1596™) and could be used as a model for IL-4 and IL-21 studies [Hui et al., Front Immunol., 2022; 13: 919854]. Jurkat is a human T lymphoblast cell line (Clone E6-1, TIB-152™) and is widely used in the T cell studies of IL-9 function. HPB-ALL is a T cell leukemia model established from the peripheral blood of a child with ALL and thymoma at diagnosis in 1973 and could be used for IL-7 functional studies.

[2] = test system: IL-7 induced STAT5 phosphorylation; test: Inhibition of IL-7 induced STAT5 phosphorylation in HPB-ALL T cell line, flow cytometry
Text: as §1, §2, §3

[3] = test system: IL-4 induced STAT6 phosphorylation; test: Inhibition of IL-4 induced STAT phosphorylation in Ramos B cell line, flow cytometry
Text: as §1, §2, §3

[4] = test system: IL-15 induced STAT5 phosphorylation; test: Inhibition of IL-15 induced STAT phosphorylation in KHYG-1 NK cell line, flow cytometry
Text: as §1, §2, §3

[5] = test system: IL-9 induced STAT3 phosphorylation; test: Inhibition of IL-9 induced STAT3 phosphorylation in Jurkat T cell line, flow cytometry
Text: as §1, §2, §3

Molecule	p-STAT3 inhibition (%) [1]	p-STAT5 inhibition (%) [2]	p-STAT6 inhibition (%) [3]	p-STAT5 inhibition (%) [4]	p-STAT3 inhibition (%) [5]
B1	75.77%	98.10%	82.22%	42.71%	100%
B2	29.10%	100%	45.99%	46.04%	97.92%
B3	13.85%	94.50%	76.95%	47.06%	82.64%
B4	26.03%	100%	73.54%	49.10%	92.36%
B5	30.00%	99.80%	63.77%	48.59%	100%
